Experimental findings from patent US20230304022, “CHIMERIC POLYPEPTIDES HAVING TARGETED BINDING SPECIFICITY” (The Scripps Research Institute, published 2023) are described below.

Some targets named below: Avr15 TALE NTD PKD (synthetic, UniProt Q56830 SEQ:151-834, K230P,Q231K,W232D (KQW to PKD)); Avr15 TALE NTD PTR (synthetic, UniProt Q56830 SEQ:151-834, K230P,Q231T,W232R (KQW to PTR)); Avr15 TALE NTD SRC (synthetic, UniProt Q56830 SEQ:151-834, K230S,Q231R,W232C (KQW to SRC)); Avr15 TALE NTD SSR (synthetic, UniProt Q56830 SEQ:151-834, K230S,Q231S,W232R (KQW to SSR)); Avr15 TALE NTD KRSNG (synthetic, UniProt Q56830 SEQ:151-834, Q231R,W232S,S233N (KQWSG to KRSNG)).

B1: A-Avr15 site (dsDNA)
DNA 1: AATAAACCCCCTCCAA
DNA 2: TTGGAGGGGGTTTATT
As for B1, the binding result with Avr15 TALE NTD PKD and in the series with Avr15 TALE NTD PTR was “binds” each time.

B2: G-Avr15 site (dsDNA)
DNA 1: GATAAACCCCCTCCAA
DNA 2: TTGGAGGGGGTTTATC
Turning to B2, the binding result with Avr15 TALE NTD SRC, with Avr15 TALE NTD SSR and in the series with Avr15 TALE NTD KRSNG was “binds” in each case.
